One molecule from paper doi:10.1101/2023.07.21.550003 (bioRxiv, 2023) can be followed below.

This test concerns the target T1, canonical HER2, extracellular region (residues 22-587) (human, UniProt P04626).
T1 construct: HER2 (ERBB2), human, extracellular region spanning residues 22-587, amplified from the complete cDNA clone BC156755 / P04626; Cloned in a modified p3XFLAG-CMV-25 vector; also called ERBB2; human epidermal growth factor receptor 2; source: HEK293F, transfected, purified from supernatant (HisTrap, Superdex200); not shown: FLAG, N-terminal, kept
Put plainly: flow cytometry on cells; yeast clones displaying scFv (anti-c-myc-FITC for display) incubated with purified Flag-tagged HER2 variants at room temperature for 2 hours; anti-Flag iFluor 647. The following applies: one partner purified.

B1: Clone 32 (scFv displayed on yeast) (scFv, V domains shown)
VH: EVQLVESGGGLVQPGGSLRLSCAASGFTFGEYTMDWVRQAPGKGLEWVADVNPNSGGSIYNKRFKGRFTLSVDRSKNTLYLQMNSLRAEDTAVYYCARNLGPSFYFDYWGQGTLVTVSS
VL: DIQMTQSPSSLSASVGDRVTITCKASQDVSIGVAWYQQKPGKAPKLLIYSASYRYTGVPSRFSGSGSGTDFTLTISSLQPEDFATYYCQQYYIYPYTFGQGTKVEIK
notes: as the heavy-chain variable region of m4 (Pertuzumab, PDB 1S78), with the changes of clone 32 among the 14 library positions; linker: three repeats of G4S between the VH and VL; as the light-chain variable region of m4 (Pertuzumab, PDB 1S78); The methods also say the library was built 'based on the AAL160 template antibody'; source: S. cerevisiae EBY100, yeast surface display (pCTCON2)
As to B1, the binding result is listed as “binds”.
